Results on four molecules are retold here after publication PMC4381075, “An intrinsically disordered region of methyl-CpG binding domain protein 2 (MBD2) recruits the histone deacetylase core of the NuRD complex”.

The target of series [1] is MBD2FLsc (human) (UniProt Q9UBB5). Briefly: fluorescence polarization. The conditions noted are these: 5-methyl-C at position 9 of strand 1 (central CpG), complement mC at position 8 implied, not given, SPR: 10 mM HEPES pH 7.4, 50 mM NaCl, 3 mM MgCl2, 0.1 mM EDTA, 1 mM DTT, 0.05% polysorbate 20, FP: 10 mM HEPES pH 7.5, 50 or 150 mM NaCl. (Polarisation of emitted light reports the rotation of a fluorescent probe.)

For series [2] the target is unchanged. The series is described as follows: SPR. The conditions noted are these: 5-methyl-C at position 9 of strand 1 (central CpG), complement mC at position 8 implied, not given, SPR: 10 mM HEPES pH 7.4, 50 mM NaCl, 3 mM MgCl2, 0.1 mM EDTA, 1 mM DTT, 0.05% polysorbate 20, FP: 10 mM HEPES pH 7.5, 50 or 150 mM NaCl.
The target in series [3] is T1, MBD2MBD (human, UniProt Q9UBB5 150-214). The series is described as follows: fluorescence polarization; 50 mM NaCl; SPR: 10 mM HEPES pH 7.4, 50 mM NaCl, 3 mM MgCl2, 0.1 mM EDTA, 1 mM DTT, 0.05% polysorbate 20; FP: 10 mM HEPES pH 7.5, 50 or 150 mM NaCl, 3 mM MgCl2, 0.1 mM EDTA, 1 mM DTT, 0.02% azide; temperature not stated. The conditions noted are these: protein: recombinant; tags: thioredoxin-His fusion (modified pET32a; tag retained); label: 3' FAM on reverse strand; blunt.

Series [4] concerns the target T2, MBD2(150-260) (human, UniProt Q9UBB5 150-260). The description is as above. As to conditions: protein: recombinant; tags: thioredoxin-His fusion (modified pET32a; tag retained); label: 3' FAM on reverse strand; blunt.
The target of series [5] is T2, MBD2(150-260). The series is described as follows: SPR; 50 mM NaCl, 3 mM Mg2+; SPR: 10 mM HEPES pH 7.4, 50 mM NaCl, 3 mM MgCl2, 0.1 mM EDTA, 1 mM DTT, 0.05% polysorbate 20; FP: 10 mM HEPES pH 7.5, 50 or 150 mM NaCl, 3 mM MgCl2, 0.1 mM EDTA, 1 mM DTT, 0.02% azide; temperature not stated. As to conditions: protein: recombinant; tags: thioredoxin-His fusion (modified pET32a; tag retained); label: 3' biotin on forward strand; blunt. In general terms: In SPR one partner is held on a chip, and binding of the other changes the refractive index at the surface.

The target of series [6] is T1, MBD2MBD. Briefly: SPR steady state; 50 mM NaCl, 3 mM Mg2+; SPR: 10 mM HEPES pH 7.4, 50 mM NaCl, 3 mM MgCl2, 0.1 mM EDTA, 1 mM DTT, 0.05% polysorbate 20; FP: 10 mM HEPES pH 7.5, 50 or 150 mM NaCl, 3 mM MgCl2, 0.1 mM EDTA, 1 mM DTT, 0.02% azide; temperature not stated. As to conditions: protein: recombinant; tags: thioredoxin-His fusion (modified pET32a; tag retained); label: 3' biotin on forward strand; blunt.

MBD2FLsc (human), sequence (Q9UBB5 whole entry): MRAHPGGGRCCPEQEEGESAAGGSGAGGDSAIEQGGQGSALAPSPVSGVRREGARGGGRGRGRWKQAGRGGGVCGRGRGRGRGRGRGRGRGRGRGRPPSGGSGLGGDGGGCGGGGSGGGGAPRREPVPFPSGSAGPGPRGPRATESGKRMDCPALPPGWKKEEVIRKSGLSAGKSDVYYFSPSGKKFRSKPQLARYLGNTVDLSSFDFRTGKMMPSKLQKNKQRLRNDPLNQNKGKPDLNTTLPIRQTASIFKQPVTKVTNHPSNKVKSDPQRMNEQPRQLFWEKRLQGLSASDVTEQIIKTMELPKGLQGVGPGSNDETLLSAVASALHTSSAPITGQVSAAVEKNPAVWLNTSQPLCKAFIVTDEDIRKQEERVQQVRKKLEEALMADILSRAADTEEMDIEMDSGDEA
T2 sequence (Q9UBB5 150-260): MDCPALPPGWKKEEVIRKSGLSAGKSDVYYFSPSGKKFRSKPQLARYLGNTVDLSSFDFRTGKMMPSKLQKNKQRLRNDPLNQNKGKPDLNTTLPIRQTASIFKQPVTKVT
T1 sequence (Q9UBB5 150-214): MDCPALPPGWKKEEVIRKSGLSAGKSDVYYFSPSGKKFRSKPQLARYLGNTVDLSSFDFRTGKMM

Regarding “GAGGCGCTCGGCGGCAG (double strand) [17 bp central mCpG, FP]”, in the series with MBD2FLsc (human) [1], the binding signal (fold affinity vs 50 mM NaCl) was 0.1 and the binding signal (fold affinity vs MBD2MBD) stood at 100. For the molecule “GAGGCGCTCGGCGGCAG (double strand) [17 bp central mCpG, SPR]”, the dissociation constant Kd (in general, the equilibrium constant for the complex coming apart) with MBD2FLsc (human) [2] came to 2 nM.

B1: 17 bp central mCpG, FP (dsDNA)
DNA 1: GAGGCGCTCGGCGGCAG
DNA 2: CTGCCGCCGAGCGCCTC
modifications: 5-methyl-C at position 9 of strand 1 (central CpG); complement mC at position 8 implied, not given
Consider B1, for which the figures for the binding signal in the series with MBD2MBD [3] and with MBD2(150-260) [4] were ~1 fold affinity (reference) and about 100 fold affinity vs MBD2MBD, respectively.

B2: 17 bp central mCpG, SPR (dsDNA)
DNA 1: GAGGCGCTCGGCGGCAG
DNA 2: CTGCCGCCGAGCGCCTC
modifications: 5-methyl-C at position 9 of strand 1 (central CpG); complement mC at position 8 implied, not given
Take B2: the results for the Kd in the series with MBD2(150-260) [5] and in the series with MBD2MBD [6] were 20 nM and 330 nM, respectively.
